# According to patent US20090291083A1, “BARB4 TARGET, ANTIBODY DESIGNATED BARB4, BARB4 RELATED ANTIBODIES, AND METHODS OF MAKING AND USING SAME” (PATRYS LIMITED, priority 2008, published 2009):
# B1: BARB4: human IgG antibody produced by hybridoma DSMZ Deposit No. DSM ACC2876; heavy chain SEQ ID NOs:1, 3, 5, 7, light chain SEQ ID NO:9 (antibody, V domains shown)
# VH: QVQLVESGGGVVQPGRSLRLSCAASGFRFTTHGMHWVRQAPGKGLEWVAVISYNGRNKYYADYVNGRFTISRDDSRDTVFLQMNSLRPEDTAMYYCAKVRGDGYGDYGYFDYWGHGTLVSVSS
# VL: QSALTQPRSVSGSPGQSVTISCTGTYNYVSWYQQHPGKAPKLMIFDVSRRSSGVPDRFSGSKSGNTASLTISGLQAEDEADYYCCSYGGTYLYVFGTGTTVTVLGQ
# Key:
# [1] = test system: human pancreas carcinoma cell-line BXPC-3; assay: Immunofluorescence, endocytosis of conjugated BARB4; assay type: cell-based; settings: 40 μg/ml conjugated antibody, 37° C., 30 minutes after binding
# Protocol: Endocytosis was determined for BARB4 on human pancreas carcinoma cell-line BXPC-3. BARB4 antibody (purified) was conjugated with Fluorescent orange 548 reactive (Fluka, Buchs, Switzerland). Conjugated BARB4 antibody at a final concentration of 40 μg/ml was directly given to 1×10^6 cells and incubated for indicated times at 37° C. Cells were harvested, rinsed and resuspended in phosphate buffer saline pH 7,4 (PBS). 100 μl of each cell suspension was fixed on slides. Finally the slides were mounted with Fluorescent Mounting Medium (DakoCytomation, Carpinteria, USA) and analyzed by confocal microscopy. The data is illustrated in FIG. 4.
# [2] = test system: A549; assay: FACS analysis of cell surface binding, BARB4 and commercial TAF 15 antibody; set-up: species or system human; settings: BARB4 100 ug/ml, TAF 15 antibody 25 μg/ml
# Protocol: (§1) To further validate BARB4 target protein TAF 15, BARB4 and a commercial TAF 15 antibody (anti-human TAFII p68, Santa Cruz Biotechnology, sc-81121) were analyzed for binding to BxPC-3, HEK 293, A549 and HeLa cell lines. In brief, cells were trypsinized with cell dissociation solution (Sigma C5789), resuspended in complete medium (RPMI 1640, PAA, E15-039, 10% Fetal bovine serum, PAA, A15-151 and 1% Glutamine, PAA, M11-004) and set on 2×10^5/ml. After 30 minutes on ice, cells were dispersed at 1 ml per FACS-tube and washed once with ice-cold PBS by centrifugation with 500 g and 4° C. Staining was done with BARB4 (100 ug/ml) or the commercial TAF 15 (25 μg/ml) IgG antibodies, control IgGs (IgG lambda, or mouse IgG), or without antibody in 200 μl PBS. Cells were incubated with 25 μg/ml antibody in 100 μl for 30 minutes on ice, then washed with ice cold PBS and secondary antibody (anti mouse IgG-FITC, dianova 115-095-008) was applied at a dilution of 1:50 in 200 μl per tube. After another 30 minutes of incubation in the dark, cells were washed twice with PBS and analyzed by FACS. […] BARB4 target protein TAF 15 validation was then analyzed by immunoprecipitation of MKNcell extracts with BARB4 and subsequent Western blotting with either BARB4 or anti-TAF 15 antibodies (Biomol, A300-308A; or Aviva, ARP30111_T100).
# [3] = test system: BxPC-3; assay: as above; set-up: species or system human; settings: BARB4 100 ug/ml, TAF 15 antibody 25 μg/ml
# Protocol: as §1
# [4] = test system: Healthy Tissues: Stomach; assay: Immunohistochemistry (IHC) with biotinylated BARB4 on healthy tissue; assay type: binding, human; settings: glandular, positive/negative
# Protocol: (§2) Immunohistochemistry with human IgG on human tissue naturally results in high background staining. Accordingly, BARB4 was labeled with biotin to reduce background.
# (§3) BARB4 antibody and an unrelated commercial IgG control (Chrompure IgG, Dianova) where labelled with “EZ-Link Maleimide-PEO Solid Phase Biotinylation Kit” from Pierce (Cat-# 21930) and Immunohistochemistry was initiated on different tumor tissue. Parrafin embedded tissue was first deparaffinized by treatment with Xylene 1 for 5 min, Xylene 2 for 5 min, followed by 100% Ethanol 1 for 5 min, 100% Ethanol 2 for 5 min, 70 ml Methanol+500 μl H2O2 for 7 min, 90% Ethanol 1 for 3 min, 90% Ethanol 2 for 3 min, 80% Ethanol 1 for 3 min, 80% Ethanol 2 for 3 min, 70% Ethanol 1 for 3 min, 70% Ethanol 2 for 3 min, and then washed three times with distilled H2O. (1 and 2 mean that the tissues were treated 2 times with the same alcohol, one after the another, in two different tanks.) Tissue was then heated in Citric acid, pH 5,5 in a water-bath at 99.9° C. for 20 min, placed in Tris/NaCl (Tris, 0.6 g/l and NaCl 8.1 g/l, pH 7.4) for 5 min, block with 0.5% BSA in PBS for 60 min, and then washed three times with Tris/NaCl (Tris, 0.6 g/l and NaCl 8.1 g/l, pH 7.4). Primary antibody (150 μl per microscope slide) was added, or a negative control biotinylated isotype matched control human antibody (Chrompure IgG, Dianova, Germany) or a positive controlanti-cytokeratin antibody, and incubated for 30 min in a humidified chamber at 37° C. Tissue was washed three times with Tris/NaCl (Tris, 0.6 g/l and NaCl 8.1 g/l, pH 7.4). Secondary antibody: (150 […]) was subsequently added and incubated for 30 min in a humidified chamber at room temperature (for biotinylated antibodies: NeurtrAvidin 1:100 in PBS), washed three times with Tris/NaCl (Tris, 0.6 g/l and NaCl 8.1 g/l, pH7.4), placed in PBS for 10 min. Tiusse was subsequently incubated with diaminobenzidine (0.05%)-hydrogen peroxide (0.02%) (150 μl per microscope slide) (Sigma, Taufkirchen, München, Germany) for 10 min, washed three times with H2O, washed once with distilled H2O, incubated with hematoxylin/eosin for 5 min, and placed under running tap water 10-15 min. Tissue was then washed again with distilled H2O, and the slides covered with Aquatex (Merck Bioscience).
# [5] = test system: Healthy Tissues: Colon; assay: as above; assay type: binding, human; settings: glandular, positive/negative
# Protocol: as §2, §3
# [6] = test system: Healthy Tissues: Breast; assay: as above; assay type: binding, human; settings: glandular, positive/negative
# Protocol: as §2, §3
# [7] = test system: Malignant Tissues: Pancreas; assay: Immunohistochemistry (IHC) with biotinylated BARB4 on malignant tissue; assay type: binding, human; settings: positive/negative
# Protocol: as §2, §3
# [8] = test system: HeLa; assay: FACS analysis of cell surface binding, BARB4 and commercial TAF 15 antibody; settings: BARB4 100 ug/ml, TAF 15 antibody 25 μg/ml
# Protocol: as §1
# [9] = test system: HEK 293; assay: as above; settings: BARB4 100 ug/ml, TAF 15 antibody 25 μg/ml
# Protocol: as §1
# [10] = test system: TAF 15; assay: Immunoprecipitation of cell extracts with BARB4 and Western blotting; assay type: binding, human; settings: MKN cell extracts
# Protocol: as §1, with “ARP30111_T100). […]” for “ARP30111_T100).”
molecule,measurement,setting,value
B1,endocytosis of antibody by cells (immunofluorescence),[1],endocytosis
same,FACS binding to the cell surface,[2],binding
same,FACS binding to the cell surface,[3],binding
same,Barb 4 +/−,[4],0/3
same,Barb 4 +/−,[5],0/3
same,Barb 4 +/−,[6],0/2
same,Barb 4 +/−,[7]; Adeno,0/1
same,Barb 4 +/−,[7]; Lymph Node Metastasis,4/0
same,FACS binding to the cell surface,[8],binding
same,FACS binding to the cell surface,[9],binding
same,detection of TAF15 in the immunoprecipitate by Western staining with BARB4 antibody,"[10]; FIG. 9B, assay conditions may not be optimized",did not appear to detect TAF15
same,"immunoprecipitation of TAF 15, Western staining with anti-TAF 15 antibodies",[10]; FIGS. 9A and 9C,able to immunoprecipiate TAF 15
